According to patent US20210093714A1, “Combination and method for inhibiting the cancer cells” (NATIONAL TAIWAN UNIVERSITY, priority 2013, published 2021):

Experiments:
EGFR [1] = molecular target: T1, EGFR (Homo sapiens, UniProt P00533); assay: FACS of membranous association between CCN2 and EGFR; assay type: cell-based; conditions: CL1-5 and A549; rCCN2 100 ng/mL; FIG. 2B
T1 construct: endogenous in cells; host or cells: CL1-5 and A549 human lung adenocarcinoma cell lines
Experimental: (§1) After washing, cells were stained with an FITC-labelled goat anti-rabbit secondary antibody (Santa Cruz Biotechnology) for 30 min in the dark. Analysis was then conducted with an FACS Calibur cytometer (Collaborative Biomedical, BD Biosciences).
In this embodiment, the concentration thereof is about 100 ng/mL.

ERK = assay: Western blot of ERK phosphorylation; assay type: cell-based, human; conditions: CL1-5, A549 and CL1-0/siCCN2; with increasing time; FIG. 3A
Experimental: (§2) Proteins ([…]) were separated by SDS-PAGE and transferred to a polyvinylidene difluoride membrane (Immobilon-P membrane; Millipore) by electrotransfer. The blot was blocked in a solution of 5% skim milk and 0.1% Tween 20 in PBS. Thereafter, membrane-bound proteins were probed with the following primary antibodies: CCN2, DAPK, phosphorylated ERK, ERK-1, phosphorylated Akt, Akt, TrkA, phosphorylated-Src, Src, b-actin, a-tubulin (Santa Cruz Biotechnology), p-EGFR, and EGFR (Cell Signaling Technology, Danvers, MA, USA). The membrane was washed and then incubated with HRP-conjugated secondary antibodies for 30 min. Enhanced chemiluminescence reagents (Amersham Pharmacia Biotech, Piscataway, N.J., USA) were employed to depict the protein bands on membranes. The light was captured on Kodak X-Omat Blue autoradiography film (PerkinElmer Life Sciences, Boston, Mass., USA).
This embodiment focuses on the effect of CCN2 on the EGFR-induced signaling pathways. At first, the effect of exogenous CCN2(rCCN2) on the MAPK/AKT signaling pathways in the lung adenocarcinoma cell lines, CL1-5, A549 and CL1-0/siCCN2 was observed by western blot analysis, the results shown in FIG. 3A.

c-Src = assay: Western blot of c-Src autophosphorylation; assay type: cell-based, human; conditions: CL1-5; 0 to 60 minutes; FIG. 3E
Experimental: as §2
Next, the effect of CCN2 on the formation of EGFR/Src complex and the phosphorylation of Src in the lung adenocarcinoma cell lines, CL1-5, A549 and CL1-0/siCCN2, was observed by western blot analysis, the results shown in FIGS. 3C to 3E.

EGFR [2] = molecular target: T1, EGFR; assay: Western blot of EGFR ubiquitination; assay type: cell-based; conditions: CL1-5; FIG. 4C
Experimental: as §2
(§3) CCN2 transfectants were seeded overnight and incubated in serum-free media for 24 h. For immunoprecipitations, cells were lysed in an RIPA buffer (150 mM NaCl, 50 mM Tris-base, 5 mM EDTA, 1% NP-40, and 0.25% deoxycholate; pH 7.4). Protein concentrations were determined using the BCA protein assay kit (Pierce, Rockford, Ill., USA). […]

β-pix/c-Cbl complex = assay: Immunoprecipitation/western blot of β-pix/c-Cbl complex and β-pix phosphorylation; assay type: cell-based, human; conditions: CL1-5; 0 to 60 minutes; FIG. 4G
Experimental: as §2, §3

DAPK = assay: Western blot of DAPK expression; assay type: cell-based, human
Experimental: as §2
This embodiment focuses on the downstream signaling in CCN2-induced anoikis. At first, the effect of DAPK which can up-regulate CCN2 played on CCN2 induced anoikis and metastasis inhibition of lung adenocarcinoma cell lineswas observed by RT-PCR, dual luciferase reporter assay and western blot analysis, the results shown in FIGS. 6A to 6C. […] In addition, in the lung adenocarcinoma cell line, CL1-0/siCCN2, DAPK expression is suppressed, and DAPK expression also be suppressed with increasing dose (0 μg, 1μg, 3μg), (as shown on the top right in the FIG. 6C). Therefore, CCN2 induced DAPK expression in time- and dose-dependent manners.

[3] = test system: lung adenocarcinoma cell line, CL1-0/siCCN2; assay: Anoikis assay with DAPK siRNA; assay type: cell-based, human; conditions: CL1-0/siCCN2 in suspension, DAPK expression decreased due to siRNA; 24 h; FIG. 6C
[4] = test system: mutated-type EGFR (L858R and T790M); assay: Western blot of EGFR expression, H1975; assay type: cell-based, human; conditions: 0 to 4 hours, FIG. 7
Experimental: as §2
First, the effect of rCCN2 on the wild-type EGFR […] lung adenocarcinoma cell line, the mutated-type EGFR H1299 lung adenocarcinoma cell line, and the mutated-type EGFR H1975 lung adenocarcinoma cell line was observed by western blot analysis, the results shown in FIG. 7(Cell lysates of H1299 transfectants or H1975 cells were immunoblotted with anti-EGFR).

EGFR [5] = assay: Western blot of EGFR expression in PC9/WT and PC9/IR; assay type: cell-based; conditions: 100 ng/mL rCCN2, 0 to 12 hours, FIG. 8C
Experimental: as §2

[6] = molecular target: T2, Epidermal growth factor receptor (EGFR) (human, UniProt P00533 25-1210); assay: FACS on CL1-5 and A549 cells (legend of FIG. 2B)
T2 construct: whole, on cells; FACS and immunoprecipitation used EGFR in or on cells
Experimental: as §1

B1: Connective tissue growth factor (CCN2), wild-type full length (ligand, human, UniProt P29279 27-349, looked up)
chain: QNCSGPCRCPDEPAPRCPAGVSLVLDGCGCCRVCAKQLGELCTERDPCDPHKGLFCHFGSPANRKIGVCTAKDGAPCIFGGTVYRSGESFQSSCKYQCTCLDGAVGCMPLCSMDVRLPSPDCPFPRRVKLPGKCCEEWVCDEPKDQTVVGPALAAYRLEDTFGPDPTMIRANCLVQTTEWSACSKTCGMGISTRVTNDNASCRLEKQSRLCMVRPCEADLEENIKKGKKCIRTPKISKPIKFELSGCTSMKTYRAKFCGVCTDGRCCTPHRTTTLPVEFKCPDGEVMKKNMMFIKTCACHYNCPGDNDIFESLYYRKMYGDMA
notes: also called Recombinant CCN2; exogenous CCN2
EGFR [1]
  detection of membranous CCN2: enhanced the detection of membranous CCN2
ERK
  phosphorylation of ERK (p-ERK1/2): gradually reduce the phosphorylation of ERK
c-Src
  autophosphorylation of c-Src Y416: gradually inhibit the autophosphorylation of c-Src^Y416
EGFR [2]
  EGFR ubiquitination degree: increase the EGFR ubiquitination degree
β-pix/c-Cbl complex
  formation of β-pix/c-Cbl complex: gradually reduce the formation of β-pixie-Chi complex
  β-pix phosphorylation: reduces β-pix phosphorylation
DAPK; CL1-5, A549 and CL1-0/siCCN2, increasing time 0 minutes to 12 hours, FIG. 6B
  DAPK expression: promote DAPK expression
DAPK; CL1-5, increasing dose (0 μm, 1μg, 3 μg), FIG. 6C
  DAPK expression: promote DAPK expression
[3]
  rCCN2 induced DNA fragmentation: decreased
[4]
  expression of EGFR: inhibit the expression of EGFR more significantly
EGFR [5]; attached PC9/IR
  expression of EGFR: suppressed more significantly
EGFR [5]; attached PC9/WT
  expression of EGFR: suppressed more significantly
[6]
  binding result: binds
